In publication PMC6144507 (Molecular Pain, 2018):

Biological target: His-nNOS(1-299) (UniProt P29475-1 1-299)
Assay: AlphaScreen or HTRF

Sequence of His-nNOS(1-299) (P29475 1-299): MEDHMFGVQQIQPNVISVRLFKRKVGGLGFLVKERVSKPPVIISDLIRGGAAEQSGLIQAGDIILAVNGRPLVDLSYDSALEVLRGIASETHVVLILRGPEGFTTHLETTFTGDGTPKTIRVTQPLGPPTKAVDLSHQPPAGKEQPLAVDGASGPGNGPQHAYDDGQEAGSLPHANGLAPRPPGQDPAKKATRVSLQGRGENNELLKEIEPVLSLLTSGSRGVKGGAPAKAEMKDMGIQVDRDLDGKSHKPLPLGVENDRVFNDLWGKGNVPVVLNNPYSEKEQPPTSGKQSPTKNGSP

IC50: 4.9 µM
Binder: GRKKRRQRRRYAGQWGESV [L-TAT-GESV]
